Test results: patent US20260008852A1 (CRYSTAL BIOSCIENCE, published 2026)

T1: His-tagged human B7-H3 (human, UniProt Q5ZPR3-2 29-245, limits assumed)
T1 construct: Bought His-tagged protein coated on the ELISA plate; also called hu B7-H3; CD276
T1 sequence (looked up): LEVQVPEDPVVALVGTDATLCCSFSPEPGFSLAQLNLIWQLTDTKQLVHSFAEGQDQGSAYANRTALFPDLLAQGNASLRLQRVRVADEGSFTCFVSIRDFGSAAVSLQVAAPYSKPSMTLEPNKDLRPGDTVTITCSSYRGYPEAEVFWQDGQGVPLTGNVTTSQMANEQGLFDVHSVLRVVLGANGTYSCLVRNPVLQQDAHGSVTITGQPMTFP

T2: His-tagged mouse B7-H3 (mouse, UniProt Q8VE98 29-244, limits assumed)
T2 construct: Bought His-tagged protein coated on the ELISA plate; also called mu B7-H3; murine B7-H3
T2 sequence (looked up): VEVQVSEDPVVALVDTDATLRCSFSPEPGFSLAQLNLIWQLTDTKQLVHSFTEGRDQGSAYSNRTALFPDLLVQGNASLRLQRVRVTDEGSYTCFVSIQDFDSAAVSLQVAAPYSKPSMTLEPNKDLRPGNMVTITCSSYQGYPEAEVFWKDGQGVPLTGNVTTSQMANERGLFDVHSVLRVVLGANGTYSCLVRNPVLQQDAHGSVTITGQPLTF

T3: His-tagged cynomolgus monkey B7-H3 (cynomolgus monkey)
T3 chain: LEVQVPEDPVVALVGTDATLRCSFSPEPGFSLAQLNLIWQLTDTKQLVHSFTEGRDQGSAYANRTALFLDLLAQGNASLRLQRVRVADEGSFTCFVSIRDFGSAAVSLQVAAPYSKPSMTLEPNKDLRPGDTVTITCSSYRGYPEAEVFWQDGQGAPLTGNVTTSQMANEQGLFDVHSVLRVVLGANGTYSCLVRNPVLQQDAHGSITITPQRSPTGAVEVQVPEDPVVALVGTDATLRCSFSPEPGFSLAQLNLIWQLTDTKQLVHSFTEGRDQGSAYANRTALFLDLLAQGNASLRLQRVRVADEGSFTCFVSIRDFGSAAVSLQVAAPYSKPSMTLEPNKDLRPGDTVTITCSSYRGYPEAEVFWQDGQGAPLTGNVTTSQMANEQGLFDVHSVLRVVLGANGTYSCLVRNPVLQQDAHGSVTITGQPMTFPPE

T4: B7-H3 on B7-H3-expressing CHO cells (Genescript) (UniProt Q5ZPR3 29-534, limits assumed)
T4 construct: whole, on cells; also called CHO-K1/B7-H3; MFI B7-H3
T4 sequence (looked up): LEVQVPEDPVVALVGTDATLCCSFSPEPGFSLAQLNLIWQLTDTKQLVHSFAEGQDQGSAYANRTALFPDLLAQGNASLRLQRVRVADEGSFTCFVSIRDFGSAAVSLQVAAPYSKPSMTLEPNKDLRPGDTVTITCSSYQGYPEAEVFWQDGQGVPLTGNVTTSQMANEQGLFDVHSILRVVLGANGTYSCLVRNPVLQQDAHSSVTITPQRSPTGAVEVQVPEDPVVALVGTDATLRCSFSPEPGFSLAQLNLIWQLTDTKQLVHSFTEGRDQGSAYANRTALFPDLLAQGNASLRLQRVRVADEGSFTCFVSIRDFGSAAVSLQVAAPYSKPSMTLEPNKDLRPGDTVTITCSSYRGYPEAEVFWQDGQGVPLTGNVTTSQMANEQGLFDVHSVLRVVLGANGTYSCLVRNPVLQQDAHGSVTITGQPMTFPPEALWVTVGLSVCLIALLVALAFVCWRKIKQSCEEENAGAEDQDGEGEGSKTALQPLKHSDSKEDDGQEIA


Tests used:
His-tagged human B7-H3 [1] = target: T1, His-tagged human B7-H3; experiment: ELISA OD450 on hu B7-H3 over OD450 on mu B7-H3
His-tagged human B7-H3 [2] = target: T1, His-tagged human B7-H3; experiment: ELISA, coated His-tagged antigen, scFv-Fc 1 ug/ml
His-tagged mouse B7-H3 = target: T2, His-tagged mouse B7-H3; experiment: ELISA, coated His-tagged antigen, scFv-Fc 1 ug/ml
[3] = target: T3, His-tagged cynomolgus monkey B7-H3; experiment: ELISA, coated His-tagged antigen, scFv-Fc 1 ug/ml
[4] = target: T4, B7-H3 on B7-H3-expressing CHO cells …; experiment: flow cytometry, B7-H3-expressing CHO cells, 10 ug/ml
Procedure, shortened: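 Antibodies at 10 μg/ml in PBS/1% BSA/0.01% NaN3 incubated 60 min on ice with ~1.5e5 cells; parental CHO cells as counterscreen. After washing, read by flow cytometry; values are mean fluorescent intensities (MFI).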

Row | Binder | hu:mu ratio (His-tagged human B7-H3 [1]) | ELISA OD450 @ 1 ug/ml (His-tagged human B7-H3 [2]) [OD450] | ELISA OD450 @ 1 ug/ml (His-tagged mouse B7-H3) [OD450] | ELISA OD450 @ 1 ug/ml [3] [OD450] | MFI @ 10 ug/ml [4] [MFI]
1 | 40511p1.1.D8 (scFv, V domains shown, Tested as scFv-Fc (Expi293 supernatant)) VH: DVQLVESGGGVVRPGESLRLSCAASGFTFSSYAMSWVRQAPGEGLEWVSSISGSGGSTLYADSVKGRFTISRDSSNNSLYLQMNSLRAEDTAVYYCAKARNNFFDYWGLGTLVTVSS VL: EIVLTQSPGTLTLSPGERATLSCRASRSILTSLAWYQQRPGQAPRLLIYGANSRATGIPDRFSGSGSGTEFTLTISSLQSEDFAVYYCQQYYDWLTITFGGGTKVEIK | 2.39 | 2.13 | 0.891 | 2.02 | 79200
2 | 40511p1.2.B5 (scFv, V domains shown, Tested as scFv-Fc (Expi293 supernatant)) VH: DVQLVESGGGVVRPGESLRLSCAASGFTFSSYAMSWVRQAPGEGLEWVSSISGSGGSTLYADSVKGRFTISRDSSNNSLYLQMNSLRAEDTAVYYCAKARNNFFDYWGLGTLVTVSS VL: EIVLTQSPGTLTLSPGERATLSCRASRSILTSLAWYQQRPGQTPRLLIYGANSRATGIPDRFSGSGSGTEFTLTISSLQSEDFAVYYCQQYYDWLTITFGGGTKVEIK | 2.78 | 2.14 | 0.771 | 2.12 | 67900
3 | 40511p1.1.H10 (scFv, V domains shown, Tested as scFv-Fc (Expi293 supernatant)) VH: DVQLVESGGGVVRPGESLRLSCAASGFTFSNYAMNWVRQAPGEGLEWVSRINYKGYNITYYADSVKGRFTISRDNSKNTLYLQMNSLRAEDTAVYYCAKSGSNSNNFFDYWGLGTLVTVSS VL: EIVLTQSPGNLSLSPGERATLSCRASQSVGSQLGWYQQKPGQAPRLLIYGASTRATGIPDRFSGSGSGTEFALTISSLQSEDFAVYYCQQYYDWPPLTFGGGTKVEIK | 4.64 | 0.641 | 0.138 | 2.03 | 22100
4 | 40579p1.D1 (scFv, V domains shown, Tested as scFv-Fc (Expi293 supernatant)) VH: EVQLLESGGGLVQPGGSLRLSCAASGFTFSDYYMSWVRQAPGKGLEWVSSISISYGGTTYYADSVKGRFTISRDNSKNTLYLQMNSLRAEDTAVYYCARDRSPYQCRSMDVWGQGTTVTVSS VL: EIVLTQSPGSLSLSPGERATLSCRASQSVNSDLAWYQQKPGQAPRLLIYAASSRATGIPARFSGSGSGTEFTLTISSLQSEDFAVYYCQQYNNWPPLTFGGGTKVEIK | 1.74 | 0.492 | 0.283 | 1.33 | 36000
5 | 40579p1.D8 (scFv, V domains shown, Tested as scFv-Fc (Expi293 supernatant)) VH: EVQLLESGGGLVQPGGSLRLSCAASGFTFSDYYMSWVRQAPGKGLEWVSSISISYGGTTYYADSVKGRFTISRDNSKNTLYLQMNSLRAEDTAVYYCARDRSPYQCRSMDVWGQGTTVTVSS VL: EIVLTQSPGTLSLSPGERATLSCRASQSIRSDLAWYQQKPGQAPRLLIYNTVTRATGVPDRFSGSGSGTEFTLTISSLQSEDFAVYYCQQYNSWPPLTFGGGTKVEIK | 2.1 | 1.01 | 0.48 | 1.87 | 40800
6 | 40511p1.1.H5 (scFv, V domains shown, Tested as scFv-Fc (Expi293 supernatant)) VH: DVQLVESGGGVVRPGESLRLSCAASGFTFSNYAMNWVRQAPGEGLEWVSRINYKGYNITYYADSVKGRFTISRDNSKNTLYLQMNSLRAEDTAVYYCAKSGSNSNNFFDYWGLGTLVTVSS VL: EIVLTQSPGTLSLSPGERATLSCRASQSIRSDLAWYQQKPGQAPRLLIYGAASRATGIPARFSGSGSGTEFTLTISSLQSGDFAVYYCQQYNSWPPLTFGGGTKVEIK | 2.25 | 1.71 | 0.758 | 2.22 | 62200
7 | 40511p1.2.G10 (scFv, V domains shown, Tested as scFv-Fc (Expi293 supernatant)) VH: DVQLVESGGGVVRPGESLRLSCAASGFTFSNYAMNWVRQAPGEGLEWVSRINYKGYNITYYADSVKGRFTISRDNSKNTLYLQMNSLRAEDTAVYYCAKSGSNSNNFFDYWGLGTLVTVSS VL: EIVLTQSPGTLSLSPGERATLSCRASQTVGSKLAWYQQKPGQAPRLLIYGASTRATDIPDRFSGSGSGTEFTLTISSLQSEDFAVYYCQQYINWPPLSFGGGTKVEIK | 1.37 | 1.98 | 1.45 | 2.37 | 78500
8 | 40511p1.2.A12 (scFv, V domains shown, Tested as scFv-Fc (Expi293 supernatant); also called 40511p1.2.Al2) VH: DVQLVESGGGVVRPGESLRLSCAASGFTFSSYAESWVRQAPGEGLEWVSIISGSGGNTFYADSVKGRFTISRDNSKNTLYLQMNSLRAEDTAVYYCARFAYGFFDYWGLGTLVTVSS VL: EIVLTQSPGTLSVSPGERATLSCRASQTVGSKLAWYQQKPGQPPSLLIYDASTRATGIPDRFSGSGSGTDFTLTISSLQSEDFAVYYCQQYRNWPPLTFGGGTKVEIK | 1.25 | 2.13 | 1.7 | 2.34 | 77200
9 | 40579p1.C2 (scFv, V domains shown, Tested as scFv-Fc (Expi293 supernatant)) VH: EVQLLESGGDLVQPGGSLRLSCAASGFNFSSYWMSWVRQAPGKGLEWVSGISISYGGNAYYADSVKGRFTVSRDNSKNTLYLQMNSLRAEDTAVYYCGRDRSPYQYRSMDVWGQGTTVTVSS VL: EIVLTQSPATLSVSPGERATFSCRASQTIGNKLAWYQQKPGQAPRLLIFSASTRATDIPDRFSGSGSGTDFTLTISSLQSEDFAVYYCQQYNNWPPLTFGGGTKVEIK | 1.16 | 2.12 | 1.82 | 2.18 | 75400
10 | 40579p1.B8 (scFv, V domains shown, Tested as scFv-Fc (Expi293 supernatant)) VH: EVQLLESGGGLVQPGGSLRLSCAASGFTFSDYYMSWVRQAPGKGLEWVSGISMSSTIYYADSVKGRFTISRDNSKNTLYLQMNSLRAEDTAVYYCARHRSPYQYRSMDVWGQGTTVTVSS VL: EIVLTQSPGTLSLSPGERATLSCRASQSVNSKLAWYQQKPGQPPSLLIYDASRRATGIPDRFSGSGSGTEFTLTISSLQSEDFAVYYCQQYNNWPPLTFGGGTKVEIK | 1.12 | 2.21 | 1.98 | 2.08 | 85500
11 | 40511p1.2.A4 (scFv, V domains shown, Tested as scFv-Fc (Expi293 supernatant)) VH: DVQLVESGGGVVRPGESLRLSCAASGFTFSSYAESWVRQAPGEGLEWVSIISGSGGNTFYADSVKGRFTISRDNSKNTLYLQMNSLRAEDTAVYYCARFAYGFFDYWGLGTLVTVSS VL: EIVLTQSPGTLSVSPGERATLSCRASQTVGSKLAWYQQKPGQAPRLLIYDASTRATDIPDRFSGSGSGTDFTLTISSLQSEDFAVYYCQQYRNWPPLTFGGGTKVEIK | 1.33 | 2.06 | 1.55 | 2.3 | 82700
12 | 40511p1.1.G1 (scFv, V domains shown, Tested as scFv-Fc (Expi293 supernatant)) VH: DVQLVESGGGVVRPGESLRLSCAASGFTFSSYAESWVRQAPGEGLEWVSIISGSGGNTFYADSVKGRFTISRDNSKNTLYLQMNSLRAEDTAVYYCARFAYGFFDYWGLGTLVTVSS VL: EIVLTQSPGTLSVSPGEGATLSCRASQTVGSKLAWYQQKPGQPPSLLIYDASTRATGIPDRFSGSGSGTDFTLTISSLQSEDFAVYYCQQYRNWPPLTFGGGTKVEIK | 1.32 | 2.2 | 1.67 | 2.28 | 74500
